Assay results: patent US20210008201A1, “ANTIBODIES FOR EPIDERMAL GROWTH FACTOR RECEPTOR 3 (HER3)” (NOVARTIS AG, priority 2011, published 2021)
Numbering of substitutions follows the chain as printed.

B1: MOR09824: anti-HER3 human antibody, IgG1/kappa; VH SEQ ID NO: 33, VL SEQ ID NO: 32 (antibody, V domains shown)
VH: QVQLVESGGGLVQPGGSLRLSCAASGFTFSSYAMSWVRQAPGKGLEWVSVISAWGHVKYYADSVKGRFTISRDNSKNTLYLQMNSLRAEDTAVYYCARWGDEGFDIWGQGTLVTVSS
VL: DIQMTQSPSSLSASVGDRVTITCRASQGISNWLAWYQQKPGKAPKLLIYGASSLQSGVPSRFSGSGSGTDFTLTISSLQPEDFAVYYCQQYSSFPTTFGQGTKVEIK
B2: MOR10701: anti-HER3 human antibody, IgG1/kappa; VH SEQ ID NO: 105, VL SEQ ID NO: 104 (antibody, V domains shown)
VH: B1 VH with Q1E, V5L, I51T, S52G, W54V, H56R, V57S, K58T, A61P
VL: B1 VL with V85T
B3: MOR12610: anti-HER3 human antibody, IgG1/kappa; VH SEQ ID NO: 375, VL SEQ ID NO: 374 (antibody, V domains shown)
VH: QVQLVESGGGLVQPGGSLRLSCAASGFTFSSYAMSWVRQAPGKGLEWVSGTGPYGGTYYPDSVKGRFTISRDNSKNTLYLQMNSLRAEDTAVYYCARWGDEGFDIWGQGTLVTVSS
VL: B1 VL
B4: MOR12609: anti-HER3 human antibody, IgG1/kappa; VH SEQ ID NO: 357, VL SEQ ID NO: 356 (antibody, V domains shown)
VH: B1 VH with S52N, A53G, W54L, H56Y, V57T, K58T, Y59F
VL: B1 VL
B5: MOR09974: anti-HER3 human antibody, IgG1/kappa; VH SEQ ID NO: 69, VL SEQ ID NO: 68 (antibody, V domains shown)
VH: B1 VH with S52N, A53P, W54S, H56N, V57F, K58T, Y59N
VL: B1 VL
B6: MOR10702: anti-HER3 human antibody, IgG1/kappa; VH SEQ ID NO: 123, VL SEQ ID NO: 122 (antibody, V domains shown)
VH: B1 VH with Q1E, V5L
VL: B1 VL with V85T

Legend:
[1] = tested on: HER3 phosphorylation in MCF7 cells; test: Phospho-HER3 in vitro cell assay, neuregulin stimulated MCF7 cells; type: cell-based, human; settings: both ligand-dependent and ligand-independent manner; summary of cell signaling assays
Method: MCF-7 cells were routinely maintained in DMEM/F12, 15 mM HEPES, L-glutamine, 10% FCS and SK-Br-3 in McCoy's 5a, 10% FCS, 1.5 mM L-glutamine. Sub-confluent MCF7 or SK-Br-3 cells grown in complete media were harvested with accutase (PAA Laboratories) and resuspended in the appropriate growth media at a final concentration of […]. 100 μL of cell suspension was then added to each well of a 96-well flat bottomed plate (Nunc) to give a final density of 5×10^4 cells/well. MCF7 cells were allowed to attach for approximately 3 hours before the media was exchanged for starvation media containing 0.5% FBS. All plates were then incubated overnight at 37° C. prior to treatment with the appropriate concentration of HER3 antibodies (diluted in the appropriate media) for 80 minutes at 37° C. MCF7 cells were treated with 50 ng/mL neuregulin 1-β1 EGF domain (R&D Systems) for the final 20 minutes to stimulate HER3 phosphorylation. All media was gently aspirated and the cells washed with ice-cold PBS containing 1 mM CaCl2) and 0.5 mM MgCl2 (Gibco). The cells were lysed by adding 50 μL ice-cold lysis buffer (20 mM Tris (pH8.0)/137 mM NaCl/10% Glycerol/2 mM EDTA/1% NP-40/1 mM sodium orthovanadate/, Aprotinin (10 μg/mL)/Leupeptin (10 μg/mL)) and incubated on ice with shaking for 30 minutes. Lysates were then collected and spun at 1800 g for 15 minutes at 4° C. to remove cell debris. 20 μL of lysate was added to a pre-prepared capture plate.
HER3 was captured from the lysate by incubating the plate at room temperature for one hour with shaking before the lysate was aspirated and the wells washed with 1× Tris buffer (Mesoscale Discovery)/0.1% Tween-20. Phosphorylated HER3 was detected using 0.75 μg/mL biotinylated anti-phosphotyrosine antibody (R&D Systems) prepared in 1% BSA/1× Tris/0.1% Tween-20 by incubating with shaking at room temperature for 1 hour. The wells were washed four times with 1× Tris/0.1% Tween-20 and biotinylated proteins were detected by incubating with S-Tag labelled Streptavidin (Mesoscale Discovery) diluted in 1% BSA/1× Tris/0.1% Tween-20 for one hour at room temperature. Each well was aspirated and washed four times with 1× Tris/0.1% Tween-20 before adding 20 μL of Read buffer T with surfactant (Mesoscale Discovery) and the signal quantified using a Mesoscale Sector Imager. Antibodies MOR06391 or MOR03207 were included in signalling experiments as isotype controls.

BT-474 xenografts = test: In vivo BT-474 efficacy studies; set-up: species or system female athymic nu/nu Balb/C mice; settings: antibody 20 mg/kg in combination with sub-optimal trastuzumab 1 mg/kg
Method: BT-474 cells were cultured in DMEM containing 10% heat-inactivated fetal bovine serum without antibiotics until the time of implantation.
One day before cell inoculation, female athymic nu/nu Balb/C mice (Harlan Laboratories) were implanted subcutaneously with a sustained release 17β-estradiol pellet (Innovative Research of America) to maintain serum estrogen levels. One day after 17β-estradiol pellet implantation, 5×10^6 cells were injected orthotopically into the 4th mammary fatpad in a suspension containing 50% phenol red-free matrigel (BD Biosciences) in Hank's balanced salt solution. The total injection volume containing cells in suspension was 200 μL. 20 days following cell implantation animals with a tumor volume of approximately 200 mm^3 were enrolled in the efficacy study. In general, a total of 10 animals per group were enrolled in efficacy studies.
An initial loading dose of 40 mg/kg was given for the first dose. […] For the duration of the studies, tumor volume was measured by calipering twice per week. Percent treatment/control (T/C) values were calculated using the following formula: […]
Body weight was measured twice per week and dose was body weight adjusted. The % change in body weight was calculated as (BWcurrent−BWinitial)/(BWinitial)×100. […]
All data were expressed as mean standard error of the mean (SEM). […]

BxPC3 tumors = test: In vivo BxPC3 efficacy studies; set-up: species or system female athymic nu/nu Balb/C mice; settings: BxPC3 tumor growth model
Method: BxPC3 cells were cultured in RPMI-1640 medium containing 10% heat-inactivated fetal bovine serum without antibiotics until the time of implantation.
Female athymic nu/nu Balb/C mice (Harlan Laboratories) were implanted subcutaneously with 10×10^6 cells in a mixture of 50% phosphate buffered saline with 50% matrigel. The total injection volume containing cells in suspension was 200 μL. Once tumors had reached approximately 200 mm^3 in size, animals were enrolled in the efficacy study. In general, a total of 10 animals per group were enrolled in studies.
Animals were dosed intravenously via lateral tail vein injection. An initial loading dose of 40 mg/kg was given for the first dose. After the initial dose, animals were on a 20 mg/kg, every other day schedule for the duration of the study (25 days under treatment). Tumor volume and T/C values were calculated as previously detailed.

Molecule	inhibition of cellular HER3 activity [1]	% T/C (BT-474 xenografts)	inhibition of ligand driven tumor growth (BxPC3 tumors)
B1	capable of inhibiting cellular HER3 activity		
B2	capable of inhibiting cellular HER3 activity	−50%	very effectively inhibited ligand driven tumor growth
B3	capable of inhibiting cellular HER3 activity		
B4	capable of inhibiting cellular HER3 activity		
B5	capable of inhibiting cellular HER3 activity		
B6	capable of inhibiting cellular HER3 activity		
